This assay addresses KDR/Flk-1 antibody. Nature of the assay: cell-based or functional assay.

Substance “PABA.CAE retroviral vector (Protein A at BstEII and Avr + Wild Type CAE env) (from UniProt P38507 212-269)” gave a # Blue Colonies (X-gal) on 5 x 10^5 KSY1 cells/well contacted with 1000 ng KDR/Flk-1 Ab, MOI = 4 (blue colonies) of 648 and a # Blue Colonies (X-gal) on 5 x 10^5 KSY1 cells/well contacted with 5000 ng KDR/Flk-1 Ab, MOI = 4 (blue colonies) of 946.

With “PABN.CAE retroviral vector (Protein A at BstEII and Ngo + Wild Type CAE env) (from UniProt P38507 212-269)”, the # Blue Colonies (X-gal) on 1 x 10^5 KSY1 cells/well contacted with 1000 ng KDR/Flk-1 Ab, MOI = 10 (blue colonies) worked out at 1560 and the # Blue Colonies (X-gal) on 1 x 10^5 KSY1 cells/well contacted with 5000 ng KDR/Flk-1 Ab, MOI = 10 (blue colonies) turned out to be 2550.

In turn, “wild-type CAE virions (Wild Type CAE env, amphotropic)” returned a # Blue Colonies (X-gal) on 1 x 10^5 KSY1 cells/well contacted with 5000 ng KDR/Flk-1 Ab, MOI = 10 (blue colonies) of 20 and a # Blue Colonies (X-gal) on 5 x 10^5 KSY1 cells/well contacted with 5000 ng KDR/Flk-1 Ab, MOI = 4 (blue colonies) of 66.

The values above are taken from patent publication US20030129163A1.
